Source: patent US20220195012A1

How the values were obtained:
[1] = target: AP C3-convertase (C3bBb) (UniProt P01024); test: cell-based or functional assay
[2] = target: CP C3-convertase (C4b2a) (UniProt P0C0L4); test: cell-based or functional assay
Chain of CP C3-convertase (C4b2a) (P0C0L4 757-1446 limits assumed, chain 1 of 4): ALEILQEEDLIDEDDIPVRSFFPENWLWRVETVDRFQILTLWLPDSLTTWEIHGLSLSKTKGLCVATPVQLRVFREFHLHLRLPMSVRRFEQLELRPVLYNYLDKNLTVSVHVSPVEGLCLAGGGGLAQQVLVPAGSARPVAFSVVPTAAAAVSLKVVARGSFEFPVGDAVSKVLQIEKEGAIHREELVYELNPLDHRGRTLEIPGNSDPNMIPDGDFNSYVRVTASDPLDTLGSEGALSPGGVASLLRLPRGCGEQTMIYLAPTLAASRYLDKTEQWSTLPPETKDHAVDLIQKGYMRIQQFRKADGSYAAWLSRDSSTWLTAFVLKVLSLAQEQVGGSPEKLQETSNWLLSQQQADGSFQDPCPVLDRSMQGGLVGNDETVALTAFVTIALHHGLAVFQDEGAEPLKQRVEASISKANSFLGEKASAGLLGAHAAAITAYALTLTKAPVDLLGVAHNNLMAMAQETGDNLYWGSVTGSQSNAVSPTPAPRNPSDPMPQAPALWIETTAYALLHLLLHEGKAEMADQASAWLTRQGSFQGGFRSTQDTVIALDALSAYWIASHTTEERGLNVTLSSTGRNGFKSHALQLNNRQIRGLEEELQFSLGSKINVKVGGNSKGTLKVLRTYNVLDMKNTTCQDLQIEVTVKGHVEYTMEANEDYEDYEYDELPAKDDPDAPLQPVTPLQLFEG
Chain of CP C3-convertase (C4b2a) (P0C0L4 20-675 limits assumed, chain 2 of 4): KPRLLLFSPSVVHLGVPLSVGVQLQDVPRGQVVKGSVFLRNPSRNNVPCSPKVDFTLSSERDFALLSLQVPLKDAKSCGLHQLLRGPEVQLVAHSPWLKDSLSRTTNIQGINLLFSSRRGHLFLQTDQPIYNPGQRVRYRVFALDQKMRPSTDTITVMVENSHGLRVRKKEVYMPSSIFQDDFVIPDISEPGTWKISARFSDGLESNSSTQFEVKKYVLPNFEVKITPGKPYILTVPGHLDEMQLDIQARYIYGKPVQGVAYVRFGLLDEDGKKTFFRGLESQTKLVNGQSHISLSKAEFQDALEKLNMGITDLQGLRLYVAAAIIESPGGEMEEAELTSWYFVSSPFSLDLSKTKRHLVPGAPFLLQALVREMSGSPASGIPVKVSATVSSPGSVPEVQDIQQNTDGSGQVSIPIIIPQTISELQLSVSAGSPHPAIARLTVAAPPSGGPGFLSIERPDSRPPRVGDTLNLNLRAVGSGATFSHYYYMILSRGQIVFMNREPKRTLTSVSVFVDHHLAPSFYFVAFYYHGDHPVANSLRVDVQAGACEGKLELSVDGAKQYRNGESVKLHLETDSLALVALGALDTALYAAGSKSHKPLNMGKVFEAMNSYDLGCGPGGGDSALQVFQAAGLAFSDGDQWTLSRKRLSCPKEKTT
Chain of CP C3-convertase (C4b2a) (P0C0L4 1454-1744 limits assumed, chain 3 of 4): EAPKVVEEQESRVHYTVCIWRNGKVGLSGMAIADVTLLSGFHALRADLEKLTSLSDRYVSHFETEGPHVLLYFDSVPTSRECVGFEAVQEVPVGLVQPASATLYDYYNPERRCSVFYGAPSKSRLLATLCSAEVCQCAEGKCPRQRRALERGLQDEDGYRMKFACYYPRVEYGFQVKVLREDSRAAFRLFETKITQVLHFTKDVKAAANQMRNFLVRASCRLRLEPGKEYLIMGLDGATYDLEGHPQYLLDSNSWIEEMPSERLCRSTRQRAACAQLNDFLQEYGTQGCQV
Chain of CP C3-convertase (C4b2a) (P06681 244-752 limits assumed, chain 4 of 4, further chain): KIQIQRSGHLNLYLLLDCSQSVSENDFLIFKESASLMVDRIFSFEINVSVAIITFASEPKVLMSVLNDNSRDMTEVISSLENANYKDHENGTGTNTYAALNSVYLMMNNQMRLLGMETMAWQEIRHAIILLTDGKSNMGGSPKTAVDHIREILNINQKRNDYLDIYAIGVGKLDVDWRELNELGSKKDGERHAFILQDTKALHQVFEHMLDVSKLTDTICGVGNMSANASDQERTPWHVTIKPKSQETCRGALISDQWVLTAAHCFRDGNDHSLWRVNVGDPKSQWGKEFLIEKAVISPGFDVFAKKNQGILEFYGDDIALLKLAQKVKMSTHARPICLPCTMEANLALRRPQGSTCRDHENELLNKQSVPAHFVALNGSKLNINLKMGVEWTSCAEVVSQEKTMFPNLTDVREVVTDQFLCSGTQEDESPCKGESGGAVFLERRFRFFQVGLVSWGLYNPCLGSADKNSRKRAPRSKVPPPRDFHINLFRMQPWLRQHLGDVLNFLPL

Chain of D2D3 (DAF deletion mutant D2-D3) (P08174 98-224 limits assumed, stated change not applied): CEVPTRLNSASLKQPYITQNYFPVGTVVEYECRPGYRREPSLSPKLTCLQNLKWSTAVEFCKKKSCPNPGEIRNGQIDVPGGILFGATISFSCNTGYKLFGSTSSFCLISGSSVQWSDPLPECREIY
Chain of AP C3-convertase (C3bBb) (P01024 23-667 limits assumed, chain 1 of 3): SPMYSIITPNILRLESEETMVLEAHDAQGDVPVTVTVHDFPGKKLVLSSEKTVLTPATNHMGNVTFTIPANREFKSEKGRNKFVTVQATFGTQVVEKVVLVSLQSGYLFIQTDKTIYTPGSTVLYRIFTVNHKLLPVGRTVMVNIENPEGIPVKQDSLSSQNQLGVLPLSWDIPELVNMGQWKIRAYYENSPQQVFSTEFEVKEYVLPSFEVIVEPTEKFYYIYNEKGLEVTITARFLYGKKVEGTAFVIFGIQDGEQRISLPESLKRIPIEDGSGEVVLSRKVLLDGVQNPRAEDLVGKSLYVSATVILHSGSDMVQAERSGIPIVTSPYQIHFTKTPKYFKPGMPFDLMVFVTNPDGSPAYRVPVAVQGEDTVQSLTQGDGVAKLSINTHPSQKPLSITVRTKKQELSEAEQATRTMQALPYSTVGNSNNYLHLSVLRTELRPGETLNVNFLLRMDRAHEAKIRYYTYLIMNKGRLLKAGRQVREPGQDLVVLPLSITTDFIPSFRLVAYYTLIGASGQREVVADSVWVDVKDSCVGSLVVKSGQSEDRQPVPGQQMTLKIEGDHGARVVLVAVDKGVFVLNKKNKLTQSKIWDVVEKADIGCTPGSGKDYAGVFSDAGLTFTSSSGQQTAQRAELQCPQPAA
Chain of AP C3-convertase (C3bBb) (P01024 749-1663 limits assumed, chain 2 of 3): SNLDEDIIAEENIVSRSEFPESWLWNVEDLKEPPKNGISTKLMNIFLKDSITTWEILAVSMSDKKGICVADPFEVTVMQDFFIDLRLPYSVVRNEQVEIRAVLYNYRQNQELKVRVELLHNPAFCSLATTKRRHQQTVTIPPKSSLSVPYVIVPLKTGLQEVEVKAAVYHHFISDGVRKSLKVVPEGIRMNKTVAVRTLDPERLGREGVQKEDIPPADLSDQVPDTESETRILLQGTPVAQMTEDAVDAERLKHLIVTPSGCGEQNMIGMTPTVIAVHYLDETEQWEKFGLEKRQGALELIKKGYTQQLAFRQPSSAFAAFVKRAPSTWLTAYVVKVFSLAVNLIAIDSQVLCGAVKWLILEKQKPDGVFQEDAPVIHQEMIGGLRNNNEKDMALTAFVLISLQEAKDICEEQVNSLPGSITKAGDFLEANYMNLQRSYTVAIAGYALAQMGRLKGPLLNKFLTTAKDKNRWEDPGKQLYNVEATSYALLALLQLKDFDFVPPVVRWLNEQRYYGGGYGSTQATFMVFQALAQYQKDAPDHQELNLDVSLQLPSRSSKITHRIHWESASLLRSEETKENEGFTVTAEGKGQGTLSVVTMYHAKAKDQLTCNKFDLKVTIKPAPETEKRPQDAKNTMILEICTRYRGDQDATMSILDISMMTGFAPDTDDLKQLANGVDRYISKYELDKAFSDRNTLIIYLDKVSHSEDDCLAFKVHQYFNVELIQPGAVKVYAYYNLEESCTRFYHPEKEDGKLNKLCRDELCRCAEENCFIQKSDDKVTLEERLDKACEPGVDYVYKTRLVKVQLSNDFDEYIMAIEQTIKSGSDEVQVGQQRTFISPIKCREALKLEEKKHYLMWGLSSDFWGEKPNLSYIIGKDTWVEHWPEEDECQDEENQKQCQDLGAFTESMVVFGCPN
Chain of AP C3-convertase (C3bBb) (P00751 260-764 limits assumed, chain 3 of 3, further chain): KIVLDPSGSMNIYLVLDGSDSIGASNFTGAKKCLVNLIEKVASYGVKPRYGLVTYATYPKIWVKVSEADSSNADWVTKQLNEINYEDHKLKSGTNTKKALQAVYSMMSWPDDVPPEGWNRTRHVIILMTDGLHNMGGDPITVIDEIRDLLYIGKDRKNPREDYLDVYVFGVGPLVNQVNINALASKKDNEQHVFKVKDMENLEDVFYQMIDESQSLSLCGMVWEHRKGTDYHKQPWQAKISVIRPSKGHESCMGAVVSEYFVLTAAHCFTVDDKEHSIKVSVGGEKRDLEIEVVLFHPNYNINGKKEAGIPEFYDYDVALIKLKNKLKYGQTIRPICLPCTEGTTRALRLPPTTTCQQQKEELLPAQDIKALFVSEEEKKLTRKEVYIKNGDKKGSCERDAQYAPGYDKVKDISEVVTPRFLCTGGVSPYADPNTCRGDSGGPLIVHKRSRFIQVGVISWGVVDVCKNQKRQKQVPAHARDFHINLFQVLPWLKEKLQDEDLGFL

| AP-DAA IC50 [1] | Relative AP-DAA [1] | CP-DAA IC50 [2] | Relative CP-DAA [2] | AP-DAA, fold reduction compared to DAF [1] | Substance |
| --- | --- | --- | --- | --- | --- |
| > 0.01 µM | < 0.2 | 10.9 µM | < 0.3 | – | D2D3 (DAF deletion mutant D2-D3) (from UniProt P08174 98-224) |
| 0.0056 µM | 0.4 | 5.7 µM | 0.4 | 10 fold | D2D3D4M4 (DAF-MCP chimera) |
